The target in data set [1] is His-YY1 ZF1+ZF2 del352-end (UniProt P25490). Kind of data set: EMSA. The note with it: EMSA: 10 mM HEPES-KOH, 12 mM Tris-HCl, 50 mM NaCl, 50 mM KCl, 5 mM MgCl2, 100 uM ZnCl2, 0.01% NP-40, 5% glycerol, 2.5 mM DTT, pH 7.4, 25 C, 2.5 nM probe; FP: …. For orientation: Mobility shift assays separate free from complexed probe on a gel.
Data set [2] deals with His-YY1 ZF1+ZF2+ZF3 del382-end (UniProt P25490). The experiment in a line: EMSA. The following applies: EMSA: 10 mM HEPES-KOH, 12 mM Tris-HCl, 50 mM NaCl, 50 mM KCl, 5 mM MgCl2, 100 uM ZnCl2, 0.01% NP-40, 5% glycerol, 2.5 mM DTT, pH 7.4, 25 C, 2.5 nM probe; FP: ….
Data set [3] has as its target T1, His-YY1 full-length (UniProt P25490 1-414). Kind of data set: EMSA; EMSA: 10 mM HEPES-KOH, 12 mM Tris-HCl, 50 mM NaCl, 50 mM KCl, 5 mM MgCl2, 100 uM ZnCl2, 0.01% NP-40, 5% glycerol, 2.5 mM DTT, pH 7.4, 25 C, 2.5 nM probe; FP: 50 mM Tris-HCl, 100 mM KCl, 2.5 mM MgCl2, 100 uM ZnCl2, pH 7.4, 25 C. The following applies: protein: recombinant, tags: His, label: Cy5.
In data set [4] the target is T1, His-YY1 full-length. Kind of data set: fluorescence polarisation; EMSA: 10 mM HEPES-KOH, 12 mM Tris-HCl, 50 mM NaCl, 50 mM KCl, 5 mM MgCl2, 100 uM ZnCl2, 0.01% NP-40, 5% glycerol, 2.5 mM DTT, pH 7.4, 25 C, 2.5 nM probe; FP: 50 mM Tris-HCl, 100 mM KCl, 2.5 mM MgCl2, 100 uM ZnCl2, pH 7.4, 25 C. The note with it: protein: recombinant; tags: His; label: FAM. (Fluorescence polarisation rises when a labelled molecule tumbles more slowly, as on binding a larger partner.)

One may read the Kd as a measure of binding affinity in units of concentration.

T1 sequence (P25490 whole entry): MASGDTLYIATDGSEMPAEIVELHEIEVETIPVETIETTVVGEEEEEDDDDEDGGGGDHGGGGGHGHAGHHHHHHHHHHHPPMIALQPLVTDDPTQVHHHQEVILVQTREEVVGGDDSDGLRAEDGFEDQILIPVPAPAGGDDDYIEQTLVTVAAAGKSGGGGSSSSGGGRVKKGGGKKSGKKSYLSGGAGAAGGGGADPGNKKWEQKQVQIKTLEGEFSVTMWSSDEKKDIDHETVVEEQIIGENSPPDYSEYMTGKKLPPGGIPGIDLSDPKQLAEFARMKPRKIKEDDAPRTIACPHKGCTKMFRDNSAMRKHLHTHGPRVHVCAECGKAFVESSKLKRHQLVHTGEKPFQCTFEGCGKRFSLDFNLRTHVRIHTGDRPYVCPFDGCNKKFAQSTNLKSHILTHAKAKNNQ
Chain of His-YY1 ZF1+ZF2 del352-end (P25490 1-351): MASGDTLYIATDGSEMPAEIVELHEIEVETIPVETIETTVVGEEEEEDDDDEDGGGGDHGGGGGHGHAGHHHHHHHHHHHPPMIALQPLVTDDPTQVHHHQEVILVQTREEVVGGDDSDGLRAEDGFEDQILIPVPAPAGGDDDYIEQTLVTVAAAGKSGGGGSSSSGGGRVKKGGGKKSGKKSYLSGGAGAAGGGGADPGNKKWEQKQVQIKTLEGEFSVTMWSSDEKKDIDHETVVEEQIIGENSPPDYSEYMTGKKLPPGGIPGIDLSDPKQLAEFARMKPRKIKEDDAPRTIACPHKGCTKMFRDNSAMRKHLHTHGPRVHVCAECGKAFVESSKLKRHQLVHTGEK
Chain of His-YY1 ZF1+ZF2+ZF3 del382-end (P25490 1-381): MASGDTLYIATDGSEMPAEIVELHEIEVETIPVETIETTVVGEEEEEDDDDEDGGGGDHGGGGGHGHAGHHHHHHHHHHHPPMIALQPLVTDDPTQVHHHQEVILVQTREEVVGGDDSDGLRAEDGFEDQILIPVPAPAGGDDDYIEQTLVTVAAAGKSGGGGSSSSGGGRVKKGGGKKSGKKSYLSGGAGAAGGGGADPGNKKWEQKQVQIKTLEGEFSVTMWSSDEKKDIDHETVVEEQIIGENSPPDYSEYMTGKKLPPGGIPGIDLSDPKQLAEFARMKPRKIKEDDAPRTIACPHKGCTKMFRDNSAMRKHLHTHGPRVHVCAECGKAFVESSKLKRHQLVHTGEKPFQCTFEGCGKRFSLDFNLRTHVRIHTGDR

Turning to “GGGGCCGGGGCCGGGGCCGGGGCCGGGGCCGGGGCCGGGGCCGGGGCC [(GGGGCC)8 RNA]”, the equilibrium dissociation constant (Kd) was determined as 129 nM in data set [1] and 59 nM in data set [2].

B1: PP7 RNA (ssRNA)
RNA: UAAAGUAAGAUAAGGCAAGACAAGGUAAAACGGAACAGAACCGAAGGGAAGAGAAGCAAAGCGAAAGGAAAUAAACAAAAGAAAAAUUCGUAGAAUUCCG
Regarding B1, in the data set with His-YY1 full-length [3], the binding result is “binds”.

B2: FuzzyYY1-a DNA (dsDNA)
DNA 1: TGGGCAACATGGCGACACCC
DNA 2: GGGTGTCGCCATGTTGCCCA
Turning to B2, the Kd with His-YY1 full-length [3] (blunt) turned out to be 242 ± 21.7 nM.

B3: AAV P5 DNA (dsDNA)
DNA 1: AGGGTCTCCATTTTGAAGCG
DNA 2: CGCTTCAAAATGGAGACCCT
In the case of B3, the binding result with His-YY1 full-length [3] (blunt) was “binds”.

B4: FuzzyYY1-b DNA (dsDNA)
DNA 1: AGTCCTAAATGGGGGAGGAG
DNA 2: CTCCTCCCCCATTTAGGACT
Take B4: in the data set with His-YY1 full-length [3] (blunt), the dissociation constant Kd was 405 ± 45.9 nM.

For GGGCGCGGCGCGCGGGCCGGGGCGGGCGCGCGGGCGGGGCGCGGCGCG (ssRNA) [randomised GC-rich RNA], the Kd in the data set with His-YY1 full-length [3] was 201 ± 17.9 nM.

In the case of CGGGGCCGGGGCCGGGGCCGGGGCCGGGGCCGGGGCCGGGGCCGGGGCCG (ssRNA) [FAM-(GGGGCC)8 RNA], the Kd with His-YY1 full-length [4] came to 45.3 ± 3.67 nM.

GGGGCCGGGGCCGGGGCCGGGGCCGGGGCCGGGGCCGGGGCCGGGGCC (ssRNA) [(GGGGCC)8 RNA]: the Kd with His-YY1 full-length [3] was determined as 46.8 ± 3.42 nM.

The values above are taken from publication PMC10728118, “Mutant GGGGCC RNA prevents YY1 from binding to Fuzzy promoter which stimulates Wnt/β-catenin pathway in C9ALS/FTD”.
